The values below come from patent US8604172B2, “Humanized antibody compositions and methods for binding lysophosphatidic acid” (Lpath, Inc., priority 2009, dated 2013).

Marks after values point to notes of the source that are not given here.

For one data set, the system named is IL-8 in Caki-1 cells. In words: LPA-induced IL-8 production in Caki-1 cells. The following applies: 18:1 LPA (0.2 mM), 0.1-30 μg/mL mAb, 24 h. Format: cell-based, human. As to the method: Three anti-LPA mAbs (B3, B7 and B58) were tested for their abilities to reduce in vitro IL-8 production compared to a non-specific antibody (NS). Caki-1 cells were seeded in 96 well plates and grown to confluency. After overnight serum starvation, cells were treated with 18:1 LPA (0.2 mM) with or without anti-LPA mAb B3, B7, B58 or NS (Non-Specific). After 24 h, cultured supernatants of renal cancer cells (Caki-1), treated with or without LPA and in presence of increasing concentrations of the anti-LPA mAbs B3, B7 and B58, were collected and analyzed for IL-8 levels using a commercially available ELISA kit (Human Quantikine Kit, R&D Systems, Minneapolis, Minn.). […] The inhibition of IL-8 release by the anti-LPA mAbs was also observed in other cancerous cell lines such as the pancreatic cell line Panc-1.

Data set [1] has as its system microblood vessel density in matrigel plugs. In words: Matrigel plug assay (VEGF/bFGF), CD31 microvessel density. The class given is in vivo, C57BL/6 mice. The following applies: for Percent Inhibition: vs control. The procedure: Female C57BL/6 mice around 8 to 10-weeks old and Matrigel Matrix High Concentration purchased from BD BioSciences (Franklin Lakes, N.J. (from BD) mixed with 50 ng/ml VEGF and 50 ng/ml bFGF, heparin 3 ng/ml as angiogenic stimuli were used for this study. There were five groups of mice, 10 Matrigel plugs were inoculated into five mice for each group on Day 0. One mouse group served as a control; four others receive drug treatment in four different doses by ip injection every other day. All treatments start at Day-1 and finish at Day 8.
Thirty C57bl/6 mice were implanted with Matrigel plugs in order to obtain 25 healthy mice with two well-shaped Matrigel plugs per mouse. On Day 0, 500 ul Matrigel at […] was subcutaneously injected to each side of the mouse, injection area was shaved. To increase the contact area of injected Matrigel into subcutaneous tissues and form a round shape plug, a wide subcutaneous pocket was formed by swaying the needlepoint right and left after a routine subcutaneous insertion. The injection was done rapidly with an appropriate size needle (21G-25G) to ensure the entire content was delivered in one plug. The injected Matrigel rapidly formed a single solid gel plug.
Animals were treated with 8 or 2 mg/kg of antibody or saline beginning 1 day prior to the implantation of Matrigel plugs or with the vehicle. Treatments were administered ip, on a q2d schedule.
Plugs from each group were collected at Day 12. The mice were euthanized and mouse skin was pulled back to expose the plug. The plugs was dissected out and fixed for histological analysis. Sections of 5 μm from paraffin-embedded plugs were stained with anti-CD-31 antibodies. Blood vessel density in a cross sectional area of each Matrigel plugs were analyzed. For each treatment group, at least six or more Matrigel plugs were quantitatively analyzed to assess any statistical significant difference of microvessel density between groups.

Data set [2] is described as follows: Direct binding ELISA of anti-LPA mAbs to 18:1 LPA. As to the method:
The binding of 6 anti-LPA mAbs (B3, B7, B58, A63, B3A6, D22) to 12:0 and 18:1 LPA (0.1 uM) was measured by ELISA. EC50 values were calculated from titration curves using 6 increasing concentrations of purified mAbs (0 to 0.4 ug/ml). EC50 represents the effective antibody concentration with 50% of the maximum binding. Max denotes the maximal binding (expressed as OD450).
(An ELISA detects its analyte on a solid surface through an enzyme-linked reagent.)

The nature of the next data set: Solubility. The settings on record: 6.6 mM phosphate, 154 mM sodium chloride, pH 7.4. Format: physicochemical.
Data set [3] relates to IL-6 release in SKOV3 cells. Nature of the data set: LPA-induced IL-6 release in SKOV3 cells. Format: cell-based, human. The settings on record: Lpathomab 600 μg/mL; 1 μM 18:1 LPA; n = 3. As to the method: Anti-LPA antibodies inhibit the LPA-dependant release of human CXCL8/IL-8 in conditioned media of SKOV3 ovarian cells. SKOV3 cells (Lot No 4255558, passage 14) were harvested with 2 ml of 1× Trypsin EDTA (Mediatech Inc, Cat. No 25-053-CV) and resuspended in 8 ml of complete medium (10% FBS, Mediatech Inc. Cat. no 35-011-CV). The cells were centrifuged for 5 min ([…]) and re-suspended in 5 ml of complete medium. Cells were counted in duplicate with 0.4% Trypan blue (10 ul cells plus 90 ul Trypan blue, Invitrogen, Cat. No 15250-061) using a hemocytometer. In a 96-well plate, 1×10^5 cells per well were seeded (final volume 100 ul/well). The cells were allowed to attach and form a confluent monolayer by incubating overnight at 37° C. On the following day, cells were gently washed two times with minimum media (1 mg/ml BSA in McCoy's medium with L-glutamine, Mediatech, Cat. No 10-050-CV). […] The CXCL8/IL-8 levels in each supernatant were measured using the Quantikine human CXCL8/IL-8 ELISA kit according to vendor instructions (R&D Systems, Minneapolis Minn., Cat. No D8000C). The IL-6 levels were measured by ELISA using the Quantikine human IL-6 immunoassay kit (R&D systems, Cat. No. D6050). Data were analyzed by one-way ANOVA followed by Bonferroni's post test and expressed as human IL-8 or human IL-6 fold increase.

Data set [4] can be described thus: BiaCore surface plasmon resonance and direct binding ELISA of LT3000. From the text: The murine antibody is a full-length IgG1k isotype antibody composed of two identical light chains and two identical heavy chains with a total molecular weight of 155.5 kDa.

B1: LT3000: Murine anti-LPA monoclonal antibody clone B7, IgG1k, renamed Lpathomab, also known as LT3000; hybridoma 504B7.1, ATCC PTA-8420 (antibody, V domains shown)
VH: QVQLQQSGAELVRPGTSVKVSCKASGYGFINYLIEWIKQRPGQGLEWIGLINPGSDYTNYNENFKGKATLTADKSSSTAYMHLSSLTSEDSAVYFCARRFGYYGSGNYFDYWGQGTTLTVSS
VL: DVVMTQTPLSLPVSLGDQASISCTSGQSLVHINGNTYLHWYLQKPGQSPKLLIYKVSNLFSGVPDRFSGSGSGTDFTLKISRVEAEDLGVYFCSQSTHFPFTFGTGTKLEIK
The EC50 is the concentration needed to bring the measured effect to its halfway point. Read a high EC50 as lower potency in that assay. By Kd is commonly meant the concentration at which binding is half-saturated. As to B1, the IL-8 expression result with IL-8 in Caki-1 cells is on record as “significantly reduced in a dose-dependent manner”. Moreover, the “microblood vessel density, Average” value was 34 in data set [1] (2 mg/kg ip q2d) and 41.5 in data set [1] (8 mg/kg ip q2d). Further, the “Percent Inhibition” value in data set [1] (2 mg/kg ip q2d) is given as 47.0%; in data set [1] (8 mg/kg ip q2d) it was 35.4%. This molecule yielded an EC50 in data set [2] (18:1 LPA 0.1 uM, mAb 0 to 0.4 ug/ml) of 0.274 nM. Besides, the “Max (OD450), 18:1 LPA” value in data set [2] (maximal binding) is 0.973 OD450. Besides, the Solubility in the data set “Solubility” is >40 mg/mL in 6.6 mM phosphate, 154 mM sodium. For the same molecule, in data set [3], the “IL-6 Release, % Inhibition (over LPA taken as 100)” value is recorded as 23* %. Besides, the Kd in data set [4] lay in the range of 0.001 to 0.05 nM.
